Data as given in article PMC10497414.
Like-named read-outs stand apart in the source and are kept apart here. One block for each substance: values may come before it.

Key:
cynomolgus CD123 = test: SPR; conditions: bispecific antibody
[1] = biological target: cynomolgus CD16 (cynomolgus) (UniProt Q8SPW2); test: SPR
[2] = biological target: cynomolgus CD32a (cynomolgus) (UniProt Q8SPW4); test: SPR
[3] = biological target: cynomolgus CD32b (cynomolgus) (UniProt Q8SPW3); test: SPR
[4] = biological target: cynomolgus CD64 (cynomolgus) (UniProt Q8SPW5); test: SPR
[5] = biological target: cynomolgus FcRn (cynomolgus) (UniProt Q8SPV9); test: SPR
cynomolgus FcRn (cynomolgus), sequence (Q8SPV9 24-365): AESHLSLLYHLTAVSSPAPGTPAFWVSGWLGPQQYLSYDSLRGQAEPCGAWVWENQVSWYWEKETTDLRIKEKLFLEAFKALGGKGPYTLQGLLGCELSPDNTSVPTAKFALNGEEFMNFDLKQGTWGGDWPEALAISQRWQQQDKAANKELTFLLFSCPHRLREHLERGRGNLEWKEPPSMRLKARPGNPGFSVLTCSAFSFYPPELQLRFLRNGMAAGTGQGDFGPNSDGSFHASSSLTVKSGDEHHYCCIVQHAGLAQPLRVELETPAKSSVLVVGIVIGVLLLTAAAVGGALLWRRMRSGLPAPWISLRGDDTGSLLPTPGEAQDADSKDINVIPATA

[6] = biological target: cynomolgus NKp46 (Gln17-Asn254) (cynomolgus) (UniProt Q95JB9); test: SPR; conditions: bispecific antibody
cynomolgus NKp46 (Gln17-Asn254) (cynomolgus), sequence (Q95JB9 17-254): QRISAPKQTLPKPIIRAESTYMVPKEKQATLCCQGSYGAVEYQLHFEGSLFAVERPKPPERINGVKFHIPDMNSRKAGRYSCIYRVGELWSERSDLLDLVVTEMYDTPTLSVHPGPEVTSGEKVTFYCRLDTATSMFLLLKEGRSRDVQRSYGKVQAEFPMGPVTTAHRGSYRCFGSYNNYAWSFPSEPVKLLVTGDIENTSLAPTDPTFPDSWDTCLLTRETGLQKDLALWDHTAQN

[7] = biological target: human CD16a (human FcγRIIIA), F isoform (human) (UniProt P08637); test: SPR
human CD16a (human FcγRIIIA), F isoform (human), sequence (P08637 17-208): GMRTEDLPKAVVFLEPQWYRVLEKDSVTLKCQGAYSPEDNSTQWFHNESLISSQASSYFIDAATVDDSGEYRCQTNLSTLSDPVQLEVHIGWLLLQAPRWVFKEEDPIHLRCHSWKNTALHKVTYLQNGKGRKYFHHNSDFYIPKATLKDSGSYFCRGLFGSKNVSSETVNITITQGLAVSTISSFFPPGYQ

[8] = biological target: human CD16a (human FcγRIIIA), V isoform (human) (UniProt P08637); test: SPR
human CD16a (human FcγRIIIA), V isoform (human), sequence (P08637 17-208 F176V): as the sequence (P08637 17-208) above, with F160V counted along it

[9] = biological target: human CD16b (human FcγRIIIB) (human) (UniProt O75015); test: SPR
human CD16b (human FcγRIIIB) (human), sequence (O75015 17-200): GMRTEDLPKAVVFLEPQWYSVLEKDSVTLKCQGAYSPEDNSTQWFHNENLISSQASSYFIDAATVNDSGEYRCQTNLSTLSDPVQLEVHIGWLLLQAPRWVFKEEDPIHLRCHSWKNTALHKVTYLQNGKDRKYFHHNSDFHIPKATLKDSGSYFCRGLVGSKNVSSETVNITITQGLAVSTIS

[10] = biological target: human CD32a (human FcγRIIA) (human) (UniProt P12318); test: SPR
human CD32a (human FcγRIIA) (human), sequence (P12318 34-317): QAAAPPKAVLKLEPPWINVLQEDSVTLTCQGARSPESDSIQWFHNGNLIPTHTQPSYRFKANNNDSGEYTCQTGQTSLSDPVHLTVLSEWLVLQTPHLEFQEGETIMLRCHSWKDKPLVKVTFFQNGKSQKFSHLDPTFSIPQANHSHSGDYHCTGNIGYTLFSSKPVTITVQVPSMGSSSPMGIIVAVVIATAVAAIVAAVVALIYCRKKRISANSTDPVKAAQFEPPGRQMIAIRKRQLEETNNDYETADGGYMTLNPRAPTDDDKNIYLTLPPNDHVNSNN

[11] = biological target: human CD32b (human FcγRIIB) (human) (UniProt P31994); test: SPR
human CD32b (human FcγRIIB) (human), sequence (P31994 43-310): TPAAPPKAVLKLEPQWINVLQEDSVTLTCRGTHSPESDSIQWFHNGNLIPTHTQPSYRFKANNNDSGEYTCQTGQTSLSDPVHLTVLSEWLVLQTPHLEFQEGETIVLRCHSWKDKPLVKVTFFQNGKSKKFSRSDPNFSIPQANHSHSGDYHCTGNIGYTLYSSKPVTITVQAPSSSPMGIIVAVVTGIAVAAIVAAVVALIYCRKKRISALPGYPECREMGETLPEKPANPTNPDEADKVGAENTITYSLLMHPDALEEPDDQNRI

[12] = biological target: human CD64 (human FcγRI) (human) (UniProt P12314); test: SPR
human CD64 (human FcγRI) (human), sequence (P12314 16-374): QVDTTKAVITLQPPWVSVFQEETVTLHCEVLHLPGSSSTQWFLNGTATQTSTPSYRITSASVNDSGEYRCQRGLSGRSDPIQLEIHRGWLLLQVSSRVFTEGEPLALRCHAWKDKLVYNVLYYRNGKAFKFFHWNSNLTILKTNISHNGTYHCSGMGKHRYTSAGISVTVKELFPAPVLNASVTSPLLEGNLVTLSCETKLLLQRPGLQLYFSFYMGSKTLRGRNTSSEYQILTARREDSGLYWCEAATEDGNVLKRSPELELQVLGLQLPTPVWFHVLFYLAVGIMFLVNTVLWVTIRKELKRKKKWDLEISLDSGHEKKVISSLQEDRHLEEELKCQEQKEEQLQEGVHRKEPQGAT

[13] = biological target: human neonatal Fc receptor (human) (UniProt P55899); test: SPR; conditions: bispecific antibody
human neonatal Fc receptor (human), sequence (P55899 24-365): as the sequence (Q8SPV9 24-365) above, with D39N, Q44E, S99G, G189S, N190S, M217L, T269S, S319V, S332L, I335V counted along it

[14] = biological target: human NKp46 (Gln22-Asn255) (Homo sapiens) (UniProt O76036)
Target sequence in this assay (O76036 22-255): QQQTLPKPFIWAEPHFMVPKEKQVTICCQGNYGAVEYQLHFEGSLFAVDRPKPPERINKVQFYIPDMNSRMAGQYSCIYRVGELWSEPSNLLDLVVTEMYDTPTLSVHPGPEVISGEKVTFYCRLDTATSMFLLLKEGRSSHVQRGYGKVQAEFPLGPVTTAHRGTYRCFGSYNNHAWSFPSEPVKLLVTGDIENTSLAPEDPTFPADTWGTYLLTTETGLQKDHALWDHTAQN

[15] = biological target: human NKp46 (Gln22-Asn255) (Homo sapiens) (UniProt O76036); test: SPR; Biacore T200, CM5 chip, 25 °C; CD123-NKCE (0.06 µg/ml) captured on anti-human Fc chip (human antibody capture kit); NKp46 or CD123 injected at 1.56 to 100 nM in HBS-EP+; 1:1 binding model with mass transport limitation; monovalent KD
[16] = biological target: recombinant human CD123 (Homo sapiens) (UniProt P26951); test: as above

cynomolgus CD16 (cynomolgus), sequence (Q8SPW2 17-254): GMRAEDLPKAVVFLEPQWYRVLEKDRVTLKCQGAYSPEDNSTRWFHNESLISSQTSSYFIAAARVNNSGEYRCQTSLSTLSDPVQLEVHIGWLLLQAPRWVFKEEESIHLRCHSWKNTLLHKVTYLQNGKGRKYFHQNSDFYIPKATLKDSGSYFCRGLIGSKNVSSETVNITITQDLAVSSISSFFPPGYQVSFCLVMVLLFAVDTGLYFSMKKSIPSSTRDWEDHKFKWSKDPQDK

Kd (cynomolgus CD123): 1.23 nM
Kd ([1]; bispecific antibody): 466 nM
Kd ([2]; bispecific antibody): 5180 nM
Kd ([3]; bispecific antibody): 1890 nM
Kd ([4]; bispecific antibody): 12 nM
Kd ([5]; bispecific antibody): 282 nM
Kd [6]: 29 nM
Kd ([7]; bispecific antibody): 2610 nM
Kd ([8]; bispecific antibody): 462 nM
Kd ([9]; bispecific antibody): 6690 nM
Kd ([10]; bispecific antibody): 1220 nM
Kd ([11]; bispecific antibody): 3200 nM
Kd ([12]; bispecific antibody): 0.2 nM
Kd [13]: 109 nM
Substance: CD123-NKCE (trifunctional NKp46-CD16a-NK cell engager targeting CD123)

Kd [15]: 16.6 nM
Kd [16]: 0.4 nM
Substance: CD123-NKCE (trifunctional NKp46-CD16a-NK cell engager targeting CD123) (bispecific antibody)
NK cell-mediated cytotoxicity (Cr-51 release) against MOLM-13 cells with NK cells from healthy donors, geometric mean EC50; NKp46 and CD16a coengaged [14]: 0.0042 nM
NK cell-mediated cytotoxicity (Cr-51 release) against MOLM-13 cells with NK cells from healthy donors, mean observed maximum specific lysis; NKp46 and CD16a coengaged [14]: 71%

Kd [1]: 580 nM
Kd [2]: 6340 nM
Kd [3]: 2320 nM
Kd [4]: 18 nM
Kd [5]: 237 nM
Kd [7]: 2820 nM
Kd [8]: 575 nM
Kd [9]: 7540 nM
Kd [10]: 1570 nM
Kd [11]: 4230 nM
Kd [12]: 0.2 nM
Substance: Human IgG1 control
